T1: amphyphisin SH3 (AMPH_HUMAN), P49418
T1 chain: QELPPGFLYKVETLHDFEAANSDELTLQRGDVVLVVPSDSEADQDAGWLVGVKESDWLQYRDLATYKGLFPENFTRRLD

One assay addresses T1, amphyphisin SH3 (AMPH_HUMAN), P49418. In words: SPOT array.
For VRSRFKRPKPNLAR [Q9HCY0 1434-1447], the normalised SPOT signal, Boehringer light units (BLU); mean over the file's lines of this peptide was found to be 37.

The molecule VTSRFKRPVNVPRD [Q9P0K9 253-266] showed a normalised SPOT signal, Boehringer light units (BLU); mean over the file's lines of this peptide of 32.8.

Molecule VPPGLRRPGPGTLY [P56945 374-387] gave a normalised SPOT signal, Boehringer light units (BLU); mean over the file's lines of this peptide of 41.5.

In turn, VRYPISRPRRRSSP [P10915 314-327] gave a normalised SPOT signal, Boehringer light units (BLU); mean over the file's lines of this peptide of 883.

The molecule VTIRPLRPPQRARL [O15211 317-331] gave a normalised SPOT signal, Boehringer light units (BLU); mean over the file's lines of this peptide of 19300.

In turn, ASEIIERPSKKDGF [Q9BZF1 153-166] had a normalised SPOT signal, Boehringer light units (BLU); mean over the file's lines of this peptide of 129.

As for VSVLPKRPRPAEFK [Q96QH2 350-363], the normalised SPOT signal, Boehringer light units (BLU); mean over the file's lines of this peptide was 54.2.

The molecule SLGLPSRPPSQLSG [Q8TBS2 64-78] registered a normalised SPOT signal, Boehringer light units (BLU); mean over the file's lines of this peptide of 42.4.

On to VTDLPKKPPPPEVT [Q96QH2 87-101], for which the normalised SPOT signal, Boehringer light units (BLU); mean over the file's lines of this peptide turned out to be 53.

Take VSYPPSKPPTYEEQ [Q15134 299-313]: the normalised SPOT signal, Boehringer light units (BLU); mean over the file's lines of this peptide amounted to 56.5.

SLLSPLRPPGQRGL [Q9UL14 222-236] displayed a normalised SPOT signal, Boehringer light units (BLU); mean over the file's lines of this peptide of 398.

With VPGDPRRPYPTDLE [Q9NPJ6 168-181], the normalised SPOT signal, Boehringer light units (BLU); mean over the file's lines of this peptide was 11.9.

The molecule VPRDLRRPASLIGQ [O60503 967-980] returned a normalised SPOT signal, Boehringer light units (BLU); mean over the file's lines of this peptide of 25.8.

VTLLIYRPERNTKL [Q9H4N5 254-267] yielded a normalised SPOT signal, Boehringer light units (BLU); mean over the file's lines of this peptide of 362.

VPLPPARPPTRDNP [Q13191 775-789]: the normalised SPOT signal, Boehringer light units (BLU); mean over the file's lines of this peptide turned out to be 1730.

On to VPMPIARPARQTSR [Q9Y6R4 202-215], for which the normalised SPOT signal, Boehringer light units (BLU); mean over the file's lines of this peptide stood at 9590.

Turning to VRLLIRRPESFGPA [Q92736 2321-2334], the normalised SPOT signal, Boehringer light units (BLU); mean over the file's lines of this peptide is 15.5.

Turning to VTQLPARPPPALYT [Q9NRJ4 1023-1037], the normalised SPOT signal, Boehringer light units (BLU); mean over the file's lines of this peptide was 39.1.

In the case of VVELPRRPAPPAAV [Q96SN6 144-157], the normalised SPOT signal, Boehringer light units (BLU); mean over the file's lines of this peptide worked out at 35.8.

VSMQLRRPSDRELS [Q04206 268-281] showed a normalised SPOT signal, Boehringer light units (BLU); mean over the file's lines of this peptide of 44.8.

The molecule VPSLPIRPSRAPSR [O43426 1061-1074] showed a normalised SPOT signal, Boehringer light units (BLU); mean over the file's lines of this peptide of 21500.

In turn, VSGPPRKPPGTVAG [O00255 515-529] gave a normalised SPOT signal, Boehringer light units (BLU); mean over the file's lines of this peptide of 61.2.

For the molecule VQSIINRPRKSPLP [O75970 1239-1252], the normalised SPOT signal, Boehringer light units (BLU); mean over the file's lines of this peptide came to 109.

As for VTSKPRKPPTPPEK [Q96JP2 954-968], the normalised SPOT signal, Boehringer light units (BLU); mean over the file's lines of this peptide is 157.

In turn, VPQKPERPPLPPKP [Q96C88 96-110] gave a normalised SPOT signal, Boehringer light units (BLU); mean over the file's lines of this peptide of 2630.

Molecule VRLPFHRPPRAGAW [Q9UKN7 887-900] returned a normalised SPOT signal, Boehringer light units (BLU); mean over the file's lines of this peptide of 2830.

In turn, VTDLPKKPPPPEAT [Q96QH2 111-125] registered a normalised SPOT signal, Boehringer light units (BLU); mean over the file's lines of this peptide of 51.8.

With VPPPPARPPPRSAR [Q8WY41 65-79], the normalised SPOT signal, Boehringer light units (BLU); mean over the file's lines of this peptide stood at 14700.

In turn, VRRIPTRPPRAPRL [Q9NWD7 62-76] returned a normalised SPOT signal, Boehringer light units (BLU); mean over the file's lines of this peptide of 25000.

VPQKPERPPLPPEP [Q9H7F7 96-110] returned a normalised SPOT signal, Boehringer light units (BLU); mean over the file's lines of this peptide of 216.

Regarding SLLRPWRPLRARGS [Q9NV38 6-19], the normalised SPOT signal, Boehringer light units (BLU); mean over the file's lines of this peptide is 6960.

As for VSHLIRRPISVNPN [Q9NXY9 858-871], the normalised SPOT signal, Boehringer light units (BLU); mean over the file's lines of this peptide amounted to 36.8.

In turn, VPKPPPKPPSPPAP [P17405 180-194] yielded a normalised SPOT signal, Boehringer light units (BLU); mean over the file's lines of this peptide of 71.9.

For VQPQLRRPFELLIA [Q96QT6 202-215], the normalised SPOT signal, Boehringer light units (BLU); mean over the file's lines of this peptide amounted to 33.9.

Take VSPEPRRPAPAVSP [Q96JM3 305-318]: the normalised SPOT signal, Boehringer light units (BLU); mean over the file's lines of this peptide is 233.

VSAALRRPGPSLVL [Q9BSQ9 205-218] came in with a normalised SPOT signal, Boehringer light units (BLU); mean over the file's lines of this peptide of 34.

As to VPPRPPRPPETART [P52849 69-83], the normalised SPOT signal, Boehringer light units (BLU); mean over the file's lines of this peptide was determined as 5100.

As for VRPPPARPPSGPGL [BAC04982 161-175], the normalised SPOT signal, Boehringer light units (BLU); mean over the file's lines of this peptide is 966.

The target in the next assay is endophilin SH3 (SH3G2_HUMAN), Q99962. In words: SPOT array.
On to VRSRFKRPKPNLAR [Q9HCY0 1434-1447], for which the normalised SPOT signal, Boehringer light units (BLU); mean over the file's lines of this peptide stood at 43.1.

Regarding VTSRFKRPVNVPRD [Q9P0K9 253-266], the normalised SPOT signal, Boehringer light units (BLU); mean over the file's lines of this peptide amounted to 33.4.

Turning to VPPGLRRPGPGTLY [P56945 374-387], the normalised SPOT signal, Boehringer light units (BLU); mean over the file's lines of this peptide is 43.6.

Turning to VRYPISRPRRRSSP [P10915 314-327], the normalised SPOT signal, Boehringer light units (BLU); mean over the file's lines of this peptide amounted to 961.

As for VTIRPLRPPQRARL [O15211 317-331], the normalised SPOT signal, Boehringer light units (BLU); mean over the file's lines of this peptide worked out at 11400.

Molecule ASEIIERPSKKDGF [Q9BZF1 153-166] yielded a normalised SPOT signal, Boehringer light units (BLU); mean over the file's lines of this peptide of 0.4.

VSVLPKRPRPAEFK [Q96QH2 350-363] displayed a normalised SPOT signal, Boehringer light units (BLU); mean over the file's lines of this peptide of 5850.

Molecule SLGLPSRPPSQLSG [Q8TBS2 64-78] had a normalised SPOT signal, Boehringer light units (BLU); mean over the file's lines of this peptide of 101.

VTDLPKKPPPPEVT [Q96QH2 87-101] displayed a normalised SPOT signal, Boehringer light units (BLU); mean over the file's lines of this peptide of 58.7.

Take VSYPPSKPPTYEEQ [Q15134 299-313]: the normalised SPOT signal, Boehringer light units (BLU); mean over the file's lines of this peptide amounted to 42.4.

Turning to SLLSPLRPPGQRGL [Q9UL14 222-236], the normalised SPOT signal, Boehringer light units (BLU); mean over the file's lines of this peptide turned out to be 323.

For VPGDPRRPYPTDLE [Q9NPJ6 168-181], the normalised SPOT signal, Boehringer light units (BLU); mean over the file's lines of this peptide was determined as 39.7.

As to VPRDLRRPASLIGQ [O60503 967-980], the normalised SPOT signal, Boehringer light units (BLU); mean over the file's lines of this peptide was determined as 19.5.

VTLLIYRPERNTKL [Q9H4N5 254-267] displayed a normalised SPOT signal, Boehringer light units (BLU); mean over the file's lines of this peptide of 28.7.

Consider VPLPPARPPTRDNP [Q13191 775-789], for which the normalised SPOT signal, Boehringer light units (BLU); mean over the file's lines of this peptide came out at 592.

Regarding VPMPIARPARQTSR [Q9Y6R4 202-215], the normalised SPOT signal, Boehringer light units (BLU); mean over the file's lines of this peptide was 1680.

The molecule VRLLIRRPESFGPA [Q92736 2321-2334] showed a normalised SPOT signal, Boehringer light units (BLU); mean over the file's lines of this peptide of 539.

VTQLPARPPPALYT [Q9NRJ4 1023-1037]: the normalised SPOT signal, Boehringer light units (BLU); mean over the file's lines of this peptide was found to be 1400.

On to VVELPRRPAPPAAV [Q96SN6 144-157], for which the normalised SPOT signal, Boehringer light units (BLU); mean over the file's lines of this peptide came out at 60.5.

Regarding VSMQLRRPSDRELS [Q04206 268-281], the normalised SPOT signal, Boehringer light units (BLU); mean over the file's lines of this peptide is 642.

On to VPSLPIRPSRAPSR [O43426 1061-1074], for which the normalised SPOT signal, Boehringer light units (BLU); mean over the file's lines of this peptide was found to be 24800.

The molecule VSGPPRKPPGTVAG [O00255 515-529] came in with a normalised SPOT signal, Boehringer light units (BLU); mean over the file's lines of this peptide of 63.4.

The molecule VQSIINRPRKSPLP [O75970 1239-1252] came in with a normalised SPOT signal, Boehringer light units (BLU); mean over the file's lines of this peptide of 84.7.

Take VTSKPRKPPTPPEK [Q96JP2 954-968]: the normalised SPOT signal, Boehringer light units (BLU); mean over the file's lines of this peptide amounted to 1560.

On to VPQKPERPPLPPKP [Q96C88 96-110], for which the normalised SPOT signal, Boehringer light units (BLU); mean over the file's lines of this peptide turned out to be 13800.

VRLPFHRPPRAGAW [Q9UKN7 887-900] showed a normalised SPOT signal, Boehringer light units (BLU); mean over the file's lines of this peptide of 455.

VTDLPKKPPPPEAT [Q96QH2 111-125] came in with a normalised SPOT signal, Boehringer light units (BLU); mean over the file's lines of this peptide of 58.

Regarding VPPPPARPPPRSAR [Q8WY41 65-79], the normalised SPOT signal, Boehringer light units (BLU); mean over the file's lines of this peptide worked out at 11800.

With VRRIPTRPPRAPRL [Q9NWD7 62-76], the normalised SPOT signal, Boehringer light units (BLU); mean over the file's lines of this peptide amounted to 14400.

With VPQKPERPPLPPEP [Q9H7F7 96-110], the normalised SPOT signal, Boehringer light units (BLU); mean over the file's lines of this peptide turned out to be 4660.

Consider SLLRPWRPLRARGS [Q9NV38 6-19], for which the normalised SPOT signal, Boehringer light units (BLU); mean over the file's lines of this peptide came out at 2400.

Consider VSHLIRRPISVNPN [Q9NXY9 858-871], for which the normalised SPOT signal, Boehringer light units (BLU); mean over the file's lines of this peptide is 381.

VPKPPPKPPSPPAP [P17405 180-194] came in with a normalised SPOT signal, Boehringer light units (BLU); mean over the file's lines of this peptide of 352.

VQPQLRRPFELLIA [Q96QT6 202-215] yielded a normalised SPOT signal, Boehringer light units (BLU); mean over the file's lines of this peptide of 41.

VSPEPRRPAPAVSP [Q96JM3 305-318] displayed a normalised SPOT signal, Boehringer light units (BLU); mean over the file's lines of this peptide of 10.4.

VSAALRRPGPSLVL [Q9BSQ9 205-218] returned a normalised SPOT signal, Boehringer light units (BLU); mean over the file's lines of this peptide of 0.

For the molecule VPPRPPRPPETART [P52849 69-83], the normalised SPOT signal, Boehringer light units (BLU); mean over the file's lines of this peptide is 5710.

As for VRPPPARPPSGPGL [BAC04982 161-175], the normalised SPOT signal, Boehringer light units (BLU); mean over the file's lines of this peptide was found to be 13000.

For the origin of these results see publication PMC314469, “Protein Interaction Networks by Proteome Peptide Scanning” (PLoS Biology, 2004).
